Results reported in article PMC5727457 (Nucleic Acids Research, 2017).

T1: Psy3 (S. cerevisiae, UniProt Q12318 1-242)
T1 sequence: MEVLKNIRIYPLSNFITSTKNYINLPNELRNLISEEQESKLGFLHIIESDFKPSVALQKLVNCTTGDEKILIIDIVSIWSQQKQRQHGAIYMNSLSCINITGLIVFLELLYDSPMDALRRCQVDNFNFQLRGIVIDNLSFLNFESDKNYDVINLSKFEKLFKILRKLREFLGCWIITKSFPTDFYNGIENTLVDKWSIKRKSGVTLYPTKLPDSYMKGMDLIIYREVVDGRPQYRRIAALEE

T2: His6-tagged Psy3-Csm2 heterodimer (S. cerevisiae, UniProt Q12318;P40465)
T2 sequence 1: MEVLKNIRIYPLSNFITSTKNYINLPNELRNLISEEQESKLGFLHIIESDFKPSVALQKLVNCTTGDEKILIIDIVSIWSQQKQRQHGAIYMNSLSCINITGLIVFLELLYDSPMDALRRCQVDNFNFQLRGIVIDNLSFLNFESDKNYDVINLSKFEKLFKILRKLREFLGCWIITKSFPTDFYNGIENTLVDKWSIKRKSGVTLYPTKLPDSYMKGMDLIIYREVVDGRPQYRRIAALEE
T2 sequence 2: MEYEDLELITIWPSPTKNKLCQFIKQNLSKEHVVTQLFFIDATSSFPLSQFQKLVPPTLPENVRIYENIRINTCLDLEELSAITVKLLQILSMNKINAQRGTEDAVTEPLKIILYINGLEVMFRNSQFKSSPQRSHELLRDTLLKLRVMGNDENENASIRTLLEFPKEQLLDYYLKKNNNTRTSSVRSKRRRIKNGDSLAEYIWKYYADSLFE

T3: His6-tagged Psy3Δ(1–7)-Csm2 heterodimer (S. cerevisiae, UniProt Q12318;P40465)
T3 sequence 1: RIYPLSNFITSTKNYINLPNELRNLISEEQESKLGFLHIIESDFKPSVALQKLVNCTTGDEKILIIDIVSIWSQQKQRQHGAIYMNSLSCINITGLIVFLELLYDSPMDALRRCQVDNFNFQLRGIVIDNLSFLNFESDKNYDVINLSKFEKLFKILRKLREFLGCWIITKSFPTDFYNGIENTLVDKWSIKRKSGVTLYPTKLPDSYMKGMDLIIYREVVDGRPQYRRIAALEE
T3 sequence 2: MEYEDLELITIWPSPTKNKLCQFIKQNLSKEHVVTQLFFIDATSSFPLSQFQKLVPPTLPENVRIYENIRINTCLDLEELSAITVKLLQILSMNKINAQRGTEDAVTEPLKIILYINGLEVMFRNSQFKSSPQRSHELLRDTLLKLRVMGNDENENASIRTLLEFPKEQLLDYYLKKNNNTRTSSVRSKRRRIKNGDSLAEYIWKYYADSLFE

B1: His6-Shu2 (natural protein)
chain: MSKDVIEYSKLFAKLVNTNDDTKLDDTIASFLYYMFPRELFIRAISLLESSDMFIYILDRVHNKEGNEHTSLIDVLVDEFYKGSSNSLLEYRLIVKDTNDGAPPILVDIAHWFCSCEEFCKYFHEALEKTDEKEELHDVLINEVDDHLQFSDDRFAQLDPHSLSKQWYFKFDKVCCSHLLAFSILLRSSINVLKFFTVNSNKVFVIAIDNIDEWLNLHINIVE

Assays:
His6-Shu2 = molecular target: B1; experiment: pull-down
Psy3 = molecular target: T1, Psy3; experiment: crystal structure
[1] = molecular target: T2, His6-tagged Psy3-Csm2 heterodimer; experiment: pull-down
[2] = molecular target: T3, His6-tagged Psy3Δ(1–7)-Csm2 heterodimer; experiment: pull-down

| binding result (Psy3) | binding result [1] | Binder | other results |
| --- | --- | --- | --- |
| binds |  | Shu1 (natural protein) MQFEERLQQLVESDWSLDQSSPNVLVIVLGDTARKYVELGGLKEHVTTNTVAGHVASRERVSVVFLGRVKYLYMYLTRMQAQANGPQYSNVLVYGLWDLTATQDGPQQLRLLSLVLRQCLSLPSKVEFYPEPPSSSVPARLLRFWDHIIR | binding result (His6-Shu2): binds |
|  | binds | Shu2-Shu1 heterodimer (His6 tag removed) (complex) chain 1: MSKDVIEYSKLFAKLVNTNDDTKLDDTIASFLYYMFPRELFIRAISLLESSDMFIYILDRVHNKEGNEHTSLIDVLVDEFYKGSSNSLLEYRLIVKDTNDGAPPILVDIAHWFCSCEEFCKYFHEALEKTDEKEELHDVLINEVDDHLQFSDDRFAQLDPHSLSKQWYFKFDKVCCSHLLAFSILLRSSINVLKFFTVNSNKVFVIAIDNIDEWLNLHINIVE chain 2: MQFEERLQQLVESDWSLDQSSPNVLVIVLGDTARKYVELGGLKEHVTTNTVAGHVASRERVSVVFLGRVKYLYMYLTRMQAQANGPQYSNVLVYGLWDLTATQDGPQQLRLLSLVLRQCLSLPSKVEFYPEPPSSSVPARLLRFWDHIIR | binding result [2]: binds |
|  | binds | Shu2-Shu1(V51L) heterodimer (His6 tag removed) (complex) chain 1: MSKDVIEYSKLFAKLVNTNDDTKLDDTIASFLYYMFPRELFIRAISLLESSDMFIYILDRVHNKEGNEHTSLIDVLVDEFYKGSSNSLLEYRLIVKDTNDGAPPILVDIAHWFCSCEEFCKYFHEALEKTDEKEELHDVLINEVDDHLQFSDDRFAQLDPHSLSKQWYFKFDKVCCSHLLAFSILLRSSINVLKFFTVNSNKVFVIAIDNIDEWLNLHINIVE chain 2: MQFEERLQQLVESDWSLDQSSPNVLVIVLGDTARKYVELGGLKEHVTTNTLAGHVASRERVSVVFLGRVKYLYMYLTRMQAQANGPQYSNVLVYGLWDLTATQDGPQQLRLLSLVLRQCLSLPSKVEFYPEPPSSSVPARLLRFWDHIIR |  |
|  | binds | Shu2-Shu1(V51A) heterodimer (His6 tag removed) (complex) chain 1: MSKDVIEYSKLFAKLVNTNDDTKLDDTIASFLYYMFPRELFIRAISLLESSDMFIYILDRVHNKEGNEHTSLIDVLVDEFYKGSSNSLLEYRLIVKDTNDGAPPILVDIAHWFCSCEEFCKYFHEALEKTDEKEELHDVLINEVDDHLQFSDDRFAQLDPHSLSKQWYFKFDKVCCSHLLAFSILLRSSINVLKFFTVNSNKVFVIAIDNIDEWLNLHINIVE chain 2: MQFEERLQQLVESDWSLDQSSPNVLVIVLGDTARKYVELGGLKEHVTTNTAAGHVASRERVSVVFLGRVKYLYMYLTRMQAQANGPQYSNVLVYGLWDLTATQDGPQQLRLLSLVLRQCLSLPSKVEFYPEPPSSSVPARLLRFWDHIIR |  |
| binds |  | B1 |  |
| binds |  | Csm2 (natural protein) MEYEDLELITIWPSPTKNKLCQFIKQNLSKEHVVTQLFFIDATSSFPLSQFQKLVPPTLPENVRIYENIRINTCLDLEELSAITVKLLQILSMNKINAQRGTEDAVTEPLKIILYINGLEVMFRNSQFKSSPQRSHELLRDTLLKLRVMGNDENENASIRTLLEFPKEQLLDYYLKKNNNTRTSSVRSKRRRIKNGDSLAEYIWKYYADSLFE |  |
